Data taken from US20010046966.

Assays:
GATA-3 = GATA-3 (UniProt P23772); assay: cell_activity; conditions: NIH3T3 luciferase
GATA-2 = GATA-2 (UniProt O09100); assay: cell_activity; conditions: NIH3T3 luciferase
Chain of GATA-2 (O09100 whole entry): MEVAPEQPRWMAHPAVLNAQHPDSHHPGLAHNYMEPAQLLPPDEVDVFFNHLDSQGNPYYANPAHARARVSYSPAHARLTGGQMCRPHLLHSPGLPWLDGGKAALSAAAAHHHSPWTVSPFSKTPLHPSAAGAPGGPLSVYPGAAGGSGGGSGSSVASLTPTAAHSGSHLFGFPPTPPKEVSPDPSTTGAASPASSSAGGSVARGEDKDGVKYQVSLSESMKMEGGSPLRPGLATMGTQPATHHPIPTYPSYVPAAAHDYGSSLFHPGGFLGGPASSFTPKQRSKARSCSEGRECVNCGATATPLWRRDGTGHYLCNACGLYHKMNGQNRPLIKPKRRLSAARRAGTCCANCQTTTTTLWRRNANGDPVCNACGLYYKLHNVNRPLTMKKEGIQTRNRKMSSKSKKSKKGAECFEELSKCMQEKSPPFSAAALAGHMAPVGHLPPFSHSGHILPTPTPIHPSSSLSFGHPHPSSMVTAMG

Chain of GATA-3 (P23772 whole entry): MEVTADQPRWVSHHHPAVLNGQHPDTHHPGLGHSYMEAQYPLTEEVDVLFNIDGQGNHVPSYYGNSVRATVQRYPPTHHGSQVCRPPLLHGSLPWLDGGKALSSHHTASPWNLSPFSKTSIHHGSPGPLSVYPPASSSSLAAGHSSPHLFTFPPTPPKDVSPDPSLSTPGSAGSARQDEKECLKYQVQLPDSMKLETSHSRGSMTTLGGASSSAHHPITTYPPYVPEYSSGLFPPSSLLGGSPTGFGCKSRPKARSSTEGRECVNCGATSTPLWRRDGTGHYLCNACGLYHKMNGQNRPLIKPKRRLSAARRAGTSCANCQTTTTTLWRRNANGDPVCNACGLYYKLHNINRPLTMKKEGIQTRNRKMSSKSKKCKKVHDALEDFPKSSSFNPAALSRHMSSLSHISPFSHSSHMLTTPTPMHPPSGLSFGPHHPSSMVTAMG

Work on “PPAR-gamma2 promoter -603 to +62 luciferase reporter” yielded an activity (fold suppression) (GATA-3) of 5 and an activity (fold suppression) (GATA-2) of 5.
